Laboratory results as given in the DeepSol protein solubility set.

Assay: soluble on expression in E. coli; label from the status in PepcDB or PDB records

Sequence	soluble on expression in E. coli
MGSDKIHHHHHHMTLSSSFAQLKDFKFKFYGQIRTDFYYNSRANEETVDGLFYMYPKDEVLDGNGEDLNATSNSNFYTLYSRLGLDVAGPKLGTAKTSAKVEVDFRGSGTSYSTIRLRHAYFNLDWGKSAVLVGQTWHPLFGDVSPQILNLSVGAPFQPFSRAPQIRYRFNNKHLQLTGALVWQSQYLSQGPAGKSQEYIKKSNIPEIYVGADYKNGGFLAGAGIEMISLKPRTQSSWEEKTFDPTTNSTISIPHTYKVDERITTLSYEAHVKYTNKNWFIGAKSVLGSNLTQASGLGGFGIKHIDNKTKEQEYTPIRFSSSWLNVVYGQKWKPGIFVGYAKNLGTSDELVSEKLYGTGTNLDKLVTAGAELTYNVPHWKFGVEYTLSSAWYGKLDKSDGKIIDTHSVSNNRIVAVAMFMF	not soluble
YGHNELPAEEGKSLWELVIEQFEDLLVRILLLAACISFVLAW	soluble
MFRRIPLGRFLTRKIHNQTNGLIVPTTNVQKQQKRQILFKMGNETPARVVGYYVVFPVIPEETVENNCFMYNIAKNEDWPKLATAEPRELYEGTVRMLMDYGATVMEHMEHLATLPAEERKFENVVEPLLTEEYEVNFAFQTLVLKMLTDWPDCNRKLFDADLHHIKIMCARDQMEKLTNKDFQDAIKQLYEAKDGLSEWQSRLLEWYLLEIKASGLDKHDDKTRKVLGSWSKFVDEYRSKYITGVMSTNDQQTFVVTDQKVIKDAPPHVLQKLAVDEQNWESGPWRGRMTPHTIYPFMQYCGDRQLRATAWEKWTSKAGFDHDFYNNSINIEELRHNNEGLAKTLGYSSVAEHRLANKMAASPETVRGFINALQRRIRPVVIDRMESWSAWAGRCELITGELQAYDMPYVCRKEAEHHYEFFFQLKSSNFSFFRVNPLDLMNHFPFWPTFQNIMGVIGHIFNLEFKDITDKGLEKAHADVRIYSVGDKFSGQHYGRLYIDPYDRQNKRGGWNVMLARPESKERGLDKIVYFIGSAIAPTSNGPSLLHHQQLQQLLFHFGRSVQLLLSQSPYRDISIPWSPFYASDWDAADMFPTFLQMFVTKPNLLATISSPHQITKQSLTEEHANSVALTISRASLWETYRTLFWSDFDLSIYEMEDRKQKFWLDMYKQMYEEYFPFKRAKNDYQPCSFTPIFALQPHMSMYYRKLWAEMLALDIHETFDEEDNEVQTGERLKTTILNRGSGDVAKELFKRFQGRNPSVGAICDHYAPPMAIQDEMEMSENQRR	not soluble
MPGIIYEGKGTNMEYADVFDSLVGDLKDDVLSLQLTNFDDVNHSYKSDGKCSMSVKDFDGYAENMPVKNVEYNGQKYIFMRSISDDAQPSQVFISVDGDERGRKRGMLITSFCGILRMISTFDYQIANSVTAKIFKVLGEYSCEEEE	not soluble
GFFDLRNELPMNCRARRKVDLSDGALKDIARIDAIWSEQMAKFPDAFLFGEWSIADAMYAPVALRFETYGIELSQGAKAYQQKVLASHAVQKWLAEASQETDIVEEDEAGVEV	not soluble
MGIKTQKNFICLKRTFSMNLRDAISVANPVQLEEEIKHDEVVSFLKSKNLLDKPVILNVEGKKVAKNFVSSRETLGKYLGVDAYSIARELSKIEDREAEIRVEPFSSLAMKKVDVNLQELPVIKYFPRDGGRYITAGIVIAQRNGVYNASIHRMLLLDESRVAARLVPPRHTYLMWREAVEREEELEVAVVIGTHPLFLFASATRVPSGKEFSYAAGLMGRLTLYRKGEMLVPDSEIILFGRITAETAKEGPFVDITGTYDIVRDEPVIVFDEMYVKEDYIYYSITPAGKEHQMLMGVPYEPVIYRFVSNVCKVKNVITTPGSCHYFHCVVQIEKKSEGDGKNAIIAALAANPSMKGVVVVDDDIDILSYEDMEFAIATRFQPDRDLVVVKGARGSSLDPSADKTTSKWGIDATKPLGKEGFDRVVLEHHHHHH	not soluble
MAHHHHHHMLHTTRLWLGGYMMYHRKAMGTMKYSKWKGAHGGISHFYGRTPMVEEVRPNEPITLVDRRIMHYVHHSRLRHFQLFRSYQEKSNSTECKLREGEMLRRRWHRRLQKSFIAFMQFKTMKVLEDQARLVNTYGQAAVNAALGDPWNATDNVARERKSAAVRRQVRALPMVNVVPKHVATMKQIHNDRFNYRWRVN	not soluble
MGHHHHHHSHMPDHGDWTYEEQFKQLYELDGDPKRKEFLDDLFSFMQKRGTPVNRIPIMAKQVLDLFMLYVLVTEKGGLVEVINKKLWREITKGLNLPTSITSAAFTLRTQYMKYLYPYECEKRGLSNPNELQAAIDSNRREGRR	soluble
MTEEFYIGTYTKRISRGIYRVSVDTTTPKLMDCEWLASAGSPTYIAKSNAKRLYVINKKETDGQTHGGLIIYDMSEDKPRAIQQLLDLGSSPAYVAVDEDRQLVYTANYHTAAVDVYAINPDGTLKRTDQVIDQDPVGPAPEQADGPHPHFADLTPDNRLVVCDLGSDRVYVYDVSATGKLSAVSHLDLPAGYGPRHIVFDAKKGVAYLVGELSSNVATLSYDTATGTFTVKTIVSTIPDDWTAHNGAAAIRLSADGKFVYVSNRGNNSLAVFASDEAGQLTLVQRISTEGDFPRDFNWTANQRLVLVVNQNSDNASLFERDAQSGKLTLVQKDFMVPEGVSVLPAKLEHHHHHH	soluble
MTRLPKLAVFDLDYTLWPFWVDTHVDPPFHKSSDGTVRDRRGQNIQLYPEVPEVLGRLQSLGVPVAAASRTSEIQGANQLLELFDLGKYFIQREIYPGSKVTHFERLHHKTGVPFSQMVFFDDENRNIIDVGRLGVTCIHIRDGMSLQTLTQGLETFAKAQAGL	soluble
MELRHIRYFLAVAEERHFTRAATKLGIGQPPLSQQIKDLERELGAQLFRRVPHGAELTEAGKAFYDVVKGMPATATRAVLAAQRVARGESGVLRVGFTASAAFNSVVPGAIRTFKRAYPDVRLQLEEGNTTQLADELNEGSLDVAFLRPGFTGNERFQLRLLSEEPMVIVLAETHPAAACKQIALSILKDEFFLLFPREIGLSLYDAVIKACGKAGFEPKIGQLVPQISSVINLVSAEMGVSMVPDSMRQVNVKGVVYRPVADQMPVAKLALAYRRGDTSPTLRNFILKVTG	not soluble
MGSDKIHHHHHHMDPLSSSDPARLASEQRRLRLQVLGLNTVEAEATFDRIARLAASFTQSPLAMVNFINDERQMFRGMYVPSGSPDDKVSPESGGIAFDLSNLSREAPGDYGFCPHVVAQGSQLALDDVFDYPRFKGNPLVNDLGVRSYLGTPLRDNTGMILGTVCVADMKPRTWDRGLREGMQELTETLLSDFKLRDSLLAQQQELFAVFDGAPFPIMLTEGPDHLLRYANGKQGSAFGLVPQFSPGRHVLPGLEAIGVFGAMDDAFHTGQAATLARASIQTYDSHTLQDFNFLCTPVRTSPAAPISGVLTVAMNTTGQDFAGSEQRAFAANVQERFERLGAGGLPGGMPGQRAESAGYRG	not soluble
MNEPSACSGPPVKSKSSKNEPFYTLKALLPPYSEIQGNHDLLMSYELGPVEGGFSGSRRVKEKISSFLPHIIGEFHLDATKEASSLRALIEKPPIHKEISNLTSSSMQGFKLSAGPVDERYRHLFERRKEEPNLAYSEKLNLIRVRQQYDAYGFDDDETEKGFPKKHKKKKKDKKRKKEKEELGDAEKRKRAADEPMEF	not soluble
MVEVKNLVAITGPKMPYELARLLKISHARATRLAAAANAQNPTPSRARTSDAQAQQPAAASPKPPAEPVAAEPKKKRAKKATPVEAGLPPLTGKITGGHACAFDVVGESYYQPALRRLRNGRHMATDNDFVADIVAEPDNPHDPNACAVYIEGFKVGYLPRDAAADFQQQVADMGVTGTWRLQTKAKLSGGWGDRPMVGVLLSLPKSLEHHHHHH	soluble
MKVRADFAFEKVARDWFVRWSKGRSEKYAGQVMRNFERWVFPAIGNLDIRQVRTADVVGCLRVMEARGIVDTLRKTKNSLKMVFAFAVGSGMMEINPVAQIGSGVFERLEHHHHHH	soluble
MSEALETGDPSPPPPIVSENGKTYYYLNSQESQAPNTPSPQEVPPKKMTNLFESGPLVYEDVAADIEAVTERASRRHYENKMVVKNSREMFDNVNILPDGRYYCCLCNRPYKTHATLTAHLRGYHLRNESSCDEPGCNFLSFTDQEKKRHRRTHDKKKKERNSQESMVIHEKIQKAVRRLDYPGEDELRDHLNGSTEVQGTIRTMTKKGKIRYACLKCPHSVFNAYHAARHVEMHNDFPKNCFYCGEIRKGTVDLQVHYMRVHKHEGIRTFKCSVCHLRFTTTILFRDHVECENGCQNPEIRQDIYYGELPEGTIVDDLTQDRLQNFRKRQEIWKTMGQMVEEHRTDVHEEIVGESSVQAGDTTVFDGSRAFIQTPFGLKTALEVKNTSRFCPRSGKRTSDDDLMITNKKRERLEMAPNLHFHQDIIHRLPTSTTTQRQNNAFQNEYLRPPVSYGYDPLIGRYPDFQLMSQSSLPSSSASSSSYDPFATAVYQDSDRNPMQPNDQHICDMNNVGAYETANFGLDNSSDLVVNEATIASNLMVNEVEDEVFEELNKLDFVMPADDGNDNDDDLEEVFNFGNVA	not soluble
HNPIDLMREIGALRQRGYNDRQIGEKIGVSTEYVNMIAGLLEKGEERLVSAVETGVLPLNLAIEISKTDAKGAQKALMDAYTQNKLRGRKLALVRRLIQQRELRGPQLHSNPLGRKPPKRALTSEGLVRAYQQEATRQKLLIKKAELTQSRLMFVREAFRKLRAD	not soluble
GAMDIVVNDDLSCRFLEGFNTRDALCKKISMNTCDEGDPFFVADLGDIVRKHETWKKCLPRVTPFYAVKCNDDWRVLGTLAALGTGFDCASNTEIQRVRGIGVPPEKIIYANPCKQISHIRYARDSGVDVMTFDCVDELEKVAKTHPKAKMVLRISTDDSLARCRLSVKFGAKVEDCRFILEQAKKLNIDVTGVSFHVGSGSTDASTFAQAISDSRFVFDMGTELGFNMHILDIGGGFPGTRDAPLKFEEIAGVINNALEKHFPPDLKLTIVAEPGRYYVASAFTLAVNVIAKKVTPGVQTDVGAHAESNAQSFMYYVNDGVYGSFNCILYDHAVVRPLPQREPIPNEKLYPSSVWGPTCDGLDQIVERYYLPEMQVGEWLLFEDMGAYTVVGTSSFNGFQSPTIYYVVSGLPDHVVRELKSQKS	soluble
MGSSHHHHHHGKTIFVIVPTNEEQVAFLEALAKQDELNFDWQNPPTEPGQPVVILIPSDMVEWFLEMLKAKGIPFTVYVEEGGSENLYFQGGGGGGRRLFLLLAWQPSFAKHLSELEPVPQRAPVEKRRRQHIPLSLQAREELSRKSNELQYHVVTQDWFGQRVDDFVTQHHPEWDYETVKRLVQQGHIYRYRKNGKKRYTRLTDRLEFDELVVVPTASFWERQLAPPSGVELQSSSTSQQQERRQKFHLSAKTREMAQEMVLFKNEHVIVINKPSGVPIMPTHDPLAMNITDLLPAWRYTNTQTPVICHNLDTETSGCVVLARSANTHRMLGRMFVKRVVPNSVYWGFAVGKPPVNFGRIRMHFEVQKGQGGDVIVARPTPTADSKVGIAEFVVNASALEFGSFISFYPLTTRRHQERIMAAHALRAPLLGDAKYGGESAFPHSLSLFWDPARKDVPLHLHHRKIQLPYKNGAGEFVCVTAPLPPHMEKTFKRLGWPVDADDPLIPG	not soluble
MGSDKIHHHHHHMGEYLTLPMEVYSGILVTHEGVFHGDLIVEEMAFEESRVEKDDFVISPTFFNAHTHLGDAALREAPRLDLVSIVGPGGYKHRMLSQIDSKTLRQEVELEVRISRDAGTSHFLDFREGGKAGLEIVKGIDGVLPLARPTSVEEAEEVEAFGFAYSSARDHDLKLMEEVREIARRRKMLFAIHAGEKDCADVDAALALEPDFVVHMNSCPEKIREFVEAEIPIVSCIRSNAFFGLLNKKSYELLSEYEKWMLGTDNAMISTASMLDEMHFAAYLIGKEKAILRAATASYAVFGFRHGYVVFNRNCSFRRTSDPLLTLVRRAGVKDIERVLIL	not soluble
MKMKKKKRKMFDVFEHVLNQIVGNGVLLLRRIVIDRSKQHKHFHLIMTYKCIFVVAQHTLVDRLESDNNGEQKFQKLCFI	not soluble
